Measurements: patent publication US7365239 (Stanford University, dated 2008)

Biological target: T1, full-length mouse RabGEF1 expressed as GAL-4 activation domain fusion protein (mouse, UniProt Q9JM13 1-491)
T1 construct: mature; Yeast two-hybrid prey in pACT2; also called Rabex-5
Test: yeast two-hybrid, beta-galactosidase assays
Excerpt: FIG. 2A-2C. Homology of RabGEF1 with members of a Rab5 binding protein family and direct interaction of RabGEF1 with Ras. (a) Alignment of amino acid sequences of mouse RabGEF1 (SEC ID NO:5) with the Vps9p domains of Vps9p (SEC ID NO:6), Rin1, (SEC ID NO:7), and JC265(SEC ID NO:8). The Vps9p domains of Vps9p, RIN1, and JC265 and the proposed GBH motifs I(SEC ID NO:9), II(SEC ID NO:10), and III(SEC ID NO:11) illustrated here represent those previously described. Identical amino acids or conservative substitutions present in three or four proteins are shaded. […] Different segments of the mouse RabGEF1 protein (shaded areas are Vps9p domains; black areas are putative GBH motifs) were expressed as GAL-4 activation domain fusion proteins, whereas the mouse H-Ras and yeast Ras2p proteins were expressed as DNA-binding fusion proteins. Positive interactions were assessed with both a qualitative colony-lift β-galactosidase filter assay using X-gal as the substrate (Colony color) and a quantitative liquid culture β-galactosidase assay using chlorophenol red-β-D-galactopyranoside as the substrate (Relative β-Gal units). […] The pulled-down RabGEF1 was detected using an anti-RabGEF1 antibody. […]
Yeast two-hybrid assay. […] The entire open reading frame and different segments of the open reading frame of the mouse RabGEF1 cDNA were separately subcloned, in frame, into the pACT2 vector.

T1 sequence (Q9JM13 whole entry, the tested form may be a part): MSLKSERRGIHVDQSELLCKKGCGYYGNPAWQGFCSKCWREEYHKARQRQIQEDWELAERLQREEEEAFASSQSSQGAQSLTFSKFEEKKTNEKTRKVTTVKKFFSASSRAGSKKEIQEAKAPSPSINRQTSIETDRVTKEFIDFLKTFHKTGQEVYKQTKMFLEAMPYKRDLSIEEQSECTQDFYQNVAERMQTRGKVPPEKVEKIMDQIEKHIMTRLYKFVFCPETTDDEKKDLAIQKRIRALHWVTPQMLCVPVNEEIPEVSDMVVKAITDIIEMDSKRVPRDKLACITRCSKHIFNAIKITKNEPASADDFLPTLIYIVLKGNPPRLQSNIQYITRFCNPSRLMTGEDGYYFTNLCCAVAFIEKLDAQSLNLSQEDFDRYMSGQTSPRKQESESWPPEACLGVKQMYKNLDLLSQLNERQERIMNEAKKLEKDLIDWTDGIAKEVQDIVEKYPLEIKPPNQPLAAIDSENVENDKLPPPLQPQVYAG

B1: yeast Ras2p expressed as DNA-binding fusion protein (other, UniProt P04386 1-147, looked up)
chain: MKLLSSIEQACDICRLKKLKCSKEKPKCAKCLKNNWECRYSPKTKRSPLTRAHLTEVESRLERLEQLFLLIFPREDLDMILKMDSLQDIKALLTGLFVQDNVNKDAVTDRLASVETDMPLTLRQHRISATSSSEESSNKGQRQLTVSMPLNKSNIREYKLVVVGGGGVGKSALTIQLTQSHFVDEYDPTIEDSYRKQVVIDDEVSILDILDTAGQEEYSAMREQYMRNGEGFLLVYSITSKSSLDELMTYYQQILRVKDTDYVPIVVVGNKSDLENEKQVSYQDGLNMAKQMNAPFLETSAKQAINVEEAFYTLARLVRDEGGKYNKTLTENDNSKQTSQDTKGSGANSVPRNSGGHRKMSNAANGKNVNSSTTVVNARNASIESKTGLAGNQATNGKTQTDRTNIDNSTGQAGQANAQSANTVNNRVNNNSKAGQVSNAKQARKQQAAPGGNTSEASKSGSGGSCIIS
Q: Does B1 bind?
A: Result: no binding
